# B1: PORE probe (dsDNA)
# DNA 1: TATACTAAGCAATTCTTCATTGATTTGAAATGCAAATTTGACTGGGCACCCTGTATCTT
# DNA 2: AAGATACAGGGTGCCCAGTCAAATTTGCATTTCAAATCAATGAAGAATTGCTTAGTATA
# Target: OCT4 K222F (Homo sapiens, UniProt Q01860 1-360, K222F)
# Assay: EMSA; homodimer; significantly increased vs WT and other variants; LightShift EMSA: 20 ul, 1.5 ug His-OCT4, 0.5 ug His-SOX2 where used, 50 nM biotin-dsDNA, 1 ul poly(dI-dC), 1x loading buffer (salt and pH not stated), 30 min, 25 C
# Settings: protein: recombinant; tags: His (pET28a); label: 5'-biotin on sense strand; blunt
# Chain of OCT4 K222F (Q01860 whole entry K222F): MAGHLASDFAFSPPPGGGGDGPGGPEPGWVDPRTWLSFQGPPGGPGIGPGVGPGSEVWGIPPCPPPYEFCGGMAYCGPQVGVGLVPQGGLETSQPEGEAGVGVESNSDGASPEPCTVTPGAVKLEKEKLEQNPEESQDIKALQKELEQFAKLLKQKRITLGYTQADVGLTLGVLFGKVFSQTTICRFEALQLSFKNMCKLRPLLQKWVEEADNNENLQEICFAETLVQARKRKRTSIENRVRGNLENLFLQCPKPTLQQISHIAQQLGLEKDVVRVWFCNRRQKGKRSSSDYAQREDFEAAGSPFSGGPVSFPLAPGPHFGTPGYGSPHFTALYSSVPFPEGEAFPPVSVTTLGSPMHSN
binder,measurement,value
B1,binding result,binds

# Source: publication PMC8119428, “LSD1-mediated demethylation of OCT4 safeguards pluripotent stem cells by maintaining the transcription of PORE-motif-containing genes”
